Values belong to the binder of their own block, whether it stands above or below them.
Assays:
HGF-His tag [1] = biological target: T1, HGF-His tag (UniProt P14210 32-728); assay: direct bind ELISA (N-term VD);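 also: ELISA screen of antibodies for binding to plate-immobilized target antigen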
T1 construct: Bought antigen coated on the ELISA plate; not shown: His tag

HGF-His tag [2] = biological target: T1, HGF-His tag; assay: direct bind ELISA (C-term VD)
Protocol: (§1) Enzyme Linked Immunosorbent Assays to screen for antibodies that bind a desired target antigen were performed as follows. […] Plates were washed four times with PBS containing 0.02% Tween 20. Plates were blocked by the addition of 300 μL/well blocking solution (non-fat dry milk powder, various retail suppliers, diluted to 2% in PBS) for ½ hour at room temperature. Plates were washed four times after blocking with PBS containing 0.02% Tween 20.
(§2) Alternatively, one hundred microliters per well of 10 μg/ml of Histidine (His) tagged desired target antigen (R&D Systems, Minneapolis, Minn.) was added to ELISA plates coated with monoclonal mouse anti-polyHistidine antibody as described above and incubated for 1 hour at room temperature. Wells were washed four times with PBS containing 0.02% Tween 20.
(§3) Plates were washed 4 times with PBS containing 0.02% Tween 20.

VEGF 1-165 aa [3] = biological target: T2, VEGF 1-165 aa (UniProt P15692 27-191); assay: direct bind ELISA (N-term VD);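 also: ELISA screen of antibodies for binding to plate-immobilized target antigen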
T2 construct: Bought antigen coated on the ELISA plate
Protocol: as §1, §2, §3

VEGF 1-165 aa [4] = biological target: T2, VEGF 1-165 aa; assay: direct bind ELISA (C-term VD)
Protocol: as §1, §2, §3

T1 sequence (P14210 32-728 limits assumed): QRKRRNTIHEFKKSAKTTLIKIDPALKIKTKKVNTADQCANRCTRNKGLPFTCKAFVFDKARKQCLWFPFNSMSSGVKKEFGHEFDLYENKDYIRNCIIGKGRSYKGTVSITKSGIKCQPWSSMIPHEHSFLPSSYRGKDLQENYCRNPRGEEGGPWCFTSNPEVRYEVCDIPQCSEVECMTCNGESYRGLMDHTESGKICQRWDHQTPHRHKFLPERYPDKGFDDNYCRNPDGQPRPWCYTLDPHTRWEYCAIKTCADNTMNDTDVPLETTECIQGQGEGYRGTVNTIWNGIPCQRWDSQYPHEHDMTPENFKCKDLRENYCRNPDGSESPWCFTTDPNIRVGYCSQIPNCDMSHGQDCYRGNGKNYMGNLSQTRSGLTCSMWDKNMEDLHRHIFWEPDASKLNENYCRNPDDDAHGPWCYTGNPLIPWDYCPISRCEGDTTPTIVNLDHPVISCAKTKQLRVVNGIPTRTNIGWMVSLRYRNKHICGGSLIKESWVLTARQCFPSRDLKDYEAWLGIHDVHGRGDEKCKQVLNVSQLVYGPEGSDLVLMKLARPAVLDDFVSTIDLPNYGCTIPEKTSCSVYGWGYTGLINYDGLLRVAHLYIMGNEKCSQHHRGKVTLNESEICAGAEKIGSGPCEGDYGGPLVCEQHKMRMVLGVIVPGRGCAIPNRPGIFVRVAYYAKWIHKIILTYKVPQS
T2 sequence (P15692 other isoform, or with tags, fused parts or gaps limits assumed): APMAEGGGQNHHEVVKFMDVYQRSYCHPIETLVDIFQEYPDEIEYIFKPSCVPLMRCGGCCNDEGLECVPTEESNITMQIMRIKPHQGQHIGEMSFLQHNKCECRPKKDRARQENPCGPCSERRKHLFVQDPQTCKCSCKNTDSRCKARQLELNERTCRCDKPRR

B2: DVD710 (bispecific antibody, human IgG1, kappa)
heavy: not shown
light: DIQMTQSPSSLSASVGDRVTITCRASQDVSTAVAWYQQKPGKAPKLLIYSASFLYSGVPSRFSGSGSGTDFTLTISSLQPEDFATYYCQQSYTTPPTFGQGTKVEIKRTVAAPDIQMTQSPSSVSASVGDRVTITCRASQGISSWLAWYQQKPGKAPNLLIYEASSLQSGVPSRFGGSGSGTDFTLTISSLQPEDFATYYCQQANGFPWTFGQGTKVEIKRTVAAPSVFIFPPSDEQLKSGTASVVCLLNNFYPREAKVQWKVDNALQSGNSQESVTEQDSKDSTYSLSSTLTLSKADYEKHKVYACEVTHQGLSSPVTKSFNRGEC
notes: DVD-Ig; HC linker short, LC linker short; vectors V1/V2
- EC50 (HGF-His tag [2]): 17.8 nM
- EC50 (VEGF 1-165 aa [3]): 2.43 nM

B3: DVD645 (bispecific antibody, human IgG1, kappa)
heavy: not shown
light: DIQMTQSPSSVSASVGDRVTITCRASQGISSWLAWYQQKPGKAPNLLIYEASSLQSGVPSRFGGSGSGTDFTLTISSLQPEDFATYYCQQANGFPWTFGQGTKVEIKRTVAAPSVFIFPPDIQMTQSPSSLSASVGDRVTITCRASQVIRRSLAWYQQKPGKAPKLLIYAASNLASGVPSRFSGSGSGTDFTLTISSLQPEDFATYYCQQSNTSPLTFGQGTKVEIKRTVAAPSVFIFPPSDEQLKSGTASVVCLLNNFYPREAKVQWKVDNALQSGNSQESVTEQDSKDSTYSLSSTLTLSKADYEKHKVYACEVTHQGLSSPVTKSFNRGEC
notes: DVD-Ig; N-term VD AB012 (HGF), C-term VD AB071 (VEGF); HC linker long, LC linker long; vectors V1/V2
- EC50 (HGF-His tag [1]): 0.17 nM

B4: DVD712 (bispecific antibody, human IgG1, kappa)
heavy: not shown
light: DIQMTQSPSSLSASVGDRVTITCRASQVIRRSLAWYQQKPGKAPKLLIYAASNLASGVPSRFSGSGSGTDFTLTISSLQPEDFATYYCQQSNTSPLTFGQGTKVEIKRTVAAPDIQMTQSPSSVSASVGDRVTITCRASQGISSWLAWYQQKPGKAPNLLIYEASSLQSGVPSRFGGSGSGTDFTLTISSLQPEDFATYYCQQANGFPWTFGQGTKVEIKRTVAAPSVFIFPPSDEQLKSGTASVVCLLNNFYPREAKVQWKVDNALQSGNSQESVTEQDSKDSTYSLSSTLTLSKADYEKHKVYACEVTHQGLSSPVTKSFNRGEC
notes: DVD-Ig; N-term VD AB071 (VEGF), C-term VD AB012 (HGF); HC linker short, LC linker short; vectors V1/V2
- EC50 (HGF-His tag [2]): 37.2 nM
- EC50 (VEGF 1-165 aa [3]): 64.2 nM

Other lines, results leading:

- EC50 (HGF-His tag [1]): 0.26 nM
B1: DVD663 (bispecific antibody, human IgG1, kappa)
heavy: not shown
light: DIQMTQSPSSLSASVGDRVTITCKASENVVSYVSWYQQKPGKAPKLLIYGASNRNTGVPSRFSGSGSGTDFTLTISSLQPEDFATYYCGQSYNYPYTFGQGTKLEIKRTVAAPDIQMTQSPSSLSASVGDRVTITCRASQVIRRSLAWYQQKPGKAPKLLIYAASNLASGVPSRFSGSGSGTDFTLTISSLQPEDFATYYCQQSNTSPLTFGQGTKVEIKRTVAAPSVFIFPPSDEQLKSGTASVVCLLNNFYPREAKVQWKVDNALQSGNSQESVTEQDSKDSTYSLSSTLTLSKADYEKHKVYACEVTHQGLSSPVTKSFNRGEC
notes: DVD-Ig; N-term VD AB079 (HGF), C-term VD AB071 (VEGF); HC linker short, LC linker short; vectors V1/V2

- EC50 (VEGF 1-165 aa [4]): 175 nM
- EC50 (HGF-His tag [1]): 0.26 nM
B5: DVD643 (bispecific antibody, human IgG1, kappa)
heavy: not shown
light: DIQMTQSPSSVSASVGDRVTITCRASQGISSWLAWYQQKPGKAPNLLIYEASSLQSGVPSRFGGSGSGTDFTLTISSLQPEDFATYYCQQANGFPWTFGQGTKVEIKRTVAAPSVFIFPPDIQMTQSPSSLSASVGDRVTITCRASQDVSTAVAWYQQKPGKAPKLLIYSASFLYSGVPSRFSGSGSGTDFTLTISSLQPEDFATYYCQQSYTTPPTFGQGTKVEIKRTVAAPSVFIFPPSDEQLKSGTASVVCLLNNFYPREAKVQWKVDNALQSGNSQESVTEQDSKDSTYSLSSTLTLSKADYEKHKVYACEVTHQGLSSPVTKSFNRGEC
notes: DVD-Ig; HC linker long, LC linker long; vectors V1/V2

- EC50 (HGF-His tag [2]): 6.55 nM
- EC50 (VEGF 1-165 aa [3]): 53.1 nM
B6: DVD682 (bispecific antibody, human IgG1, kappa)
heavy: not shown
light: DIQMTQSPSSLSASVGDRVTITCRASQVIRRSLAWYQQKPGKAPKLLIYAASNLASGVPSRFSGSGSGTDFTLTISSLQPEDFATYYCQQSNTSPLTFGQGTKVEIKRTVAAPSVFIFPPDIQMTQSPSSLSASVGDRVTITCKASENVVSYVSWYQQKPGKAPKLLIYGASNRNTGVPSRFSGSGSGTDFTLTISSLQPEDFATYYCGQSYNYPYTFGQGTKLEIKRTVAAPSVFIFPPSDEQLKSGTASVVCLLNNFYPREAKVQWKVDNALQSGNSQESVTEQDSKDSTYSLSSTLTLSKADYEKHKVYACEVTHQGLSSPVTKSFNRGEC
notes: DVD-Ig; N-term VD AB071 (VEGF), C-term VD AB079 (HGF); HC linker short, LC linker long; vectors V1/V2
